First the molecules themselves.
B1: Taf4, subunit of Komagataella phaffii TFIID (natural protein, UniProt F2QWX2 1-411, looked up)
chain: MSSTPDGSTPVDSGKRTSDQIDVGEYKRVKVERGNRSETVDSGLIDMSNSVGASLDIPTPDQLNPTNTGVQTPSLHQPGESISAHSLSLPGETSVGGSTGISRENTPQVRPDVSVSQSSSQLHQRNESFPGLSVSKSTTSLNKDTMFDNRKRLLGNNGANPNGQKSSDPEKLSDALTAAGVDLKEEESLLSQSTVIQQSRRQLSTLSSFLHPVHLATFMRRVMENNGLRNYVDHDTELLSYMSSACEGFMAGILTDSVILANHRKRPIKSKLKHSTTPRSDVSKVLRDIATKQKEREEQRVQKRVTLDIEGQEDDGKSKQDNEEVLHRAANATAMMMTSKSKKKKYSWMNADSGAQGGKTNSVLARGDSGIRYRDAREEPGLVLRDLLGALEGRRMCVANTVVKGYARMND
notes: Taf4, TFIID subunit of the yeast Komagataella phaffii (formerly Pichia pastoris); histone-fold domain modelled in the cryo-EM map; source: endogenous, K. phaffii nuclear extract; co-purified in TFIID by SBP-tagged Taf2 (streptavidin beads, sucrose gradient)
B2: Taf12, subunit of Komagataella phaffii TFIID (natural protein, UniProt F2QSK7 1-609, looked up)
chain: MNQPPNQPQDNDSQVSSSGMQGGNSMNYSSSAPVNGAGQGPQPQQNSQGQNGKKPVGMQQAQIQLLARRYQLEMQKAHQLGPQTPQGAEHLQTATKIKHVLLSYQQQRQRQQGQVQGQGLSQPQGQNQAQGRVQQQTQGLSPDPGSHQGSPQFQQPHQVMMGSAQTAGTSIANPQAQSNISSQVSQMAAAKVNSASPPIPPKTVGTPTGTPVGTQPRGQVTIQQFQQVKSILEEFEKKLRTIEAAKRDQNLPEETLQKLLRQEAILKQRYAQTKATAYQMSQHLQRQQQALRAASAESAEVYVTGSASSPNMNVYNQQILTQQPQQQLQQQQLHQPQPQQPQPARQSPHLLIHQQQQQQQQQQQQQQQQQQHPVTHRPSNVSQTMPQPSQPLQSSTPSSAVGRNQSPGATPVTSVNAAAKPSPGTSSTSTLINQHILKPAPPPTEIPARLQVKPPQPAAMKIPNRPTLLGGSAISQPSLTTPVSIRPPPLEMEGDHVLQKRKLKELLRNVGADEGDGETVIDGDVEELLLDLADEFVTSVTSFACRLAKHRKVDNIDMRDVQLHLERNWNIRVPGYASDEIRSVRKFQPTAGYNQKVQGVAISKSVNKN
notes: Taf12, TFIID subunit of the yeast Komagataella phaffii (formerly Pichia pastoris); histone-fold domain modelled in the cryo-EM map; source: endogenous, K. phaffii nuclear extract; co-purified in TFIID by SBP-tagged Taf2 (streptavidin beads, sucrose gradient)
B3: Taf1 (TBP-associated factor 1), subunit of Komagataella phaffii TFIID (natural protein, UniProt F2QMX2 1-1010, looked up)
chain: MDVDFDNALNGQVGGFDQFFDGTTKHADNAIDFSDEEELADEEVGDAPQRRTDVDDEHKPPEGTYEMNLSGSEKEDLLFKNLEREASEGTELPLPTIGGLKVPNFDNNIGLNETISERNECNQISNSHFVKHLEKTMIRTQMLKYYYPSFQKSKPISFSSLFPPPLASFQLYDGRDCTPLLPLKALQEVDPDEKKIFKSSFSAHQSKGDKRSQSVKHIELMELESNNTQIPPRKQKETLKHLDRNIVLSTLSWDDTELLSDKLEERHNRNRTKPNFQQMQYDDWDVDTDMILEGTLDTSRLNLKLDMNDPHLLFLNQKHKPSPAGKMNARFPMNSKSFEMKFNISNDMQYQMLKDNYQSKIRSTIGNLSIDHSIPATILQTPFYKVKLSKQELRRFHRPVFNSRPNSTILFSKIKTRKKKKDRGKETKELFKKSVDLTLGDSASFFLLEYSEEQPVALSNFGMGSKLINYYRKLNDDDNSRPKLPVGETHVLGVQDRSPFWNFGFVEPGNLVPTFYNNMVRAPIFRHEPEETDFLLIRSSGGGISPRYFLRSLDHVFTVGQTFPVVDVPGPHSRKVTSTSKNRLKMIVYRVLNKNERHRLVVKDISIHFPDQNDMQNRQRLKEFMEYQKNGEDHGFWKIKGNEILPGFKEIQQMIQPEDIALLEAMQFGQLNLEDYDSLREETLIGQTTATTEEALQVQMAPWSTTKNFIQATQGKAMLQVHGIGDPSKKGEAISFLRISMKGGFKSSMEDIVEKAEQMDNKKSQGHSYNVAVQQKMYDEEISRVWYAQQRALSKTSDMMERELGPTEAPTASSVYDDQNQITEMAKTLEEFVLSPLQTTVSSVKPASIKEKKHMKITRMVRDQNGILQRRTQLVTDQKVIAAYIQRKQEQEKAEIDAEKISFTNDEEQNRRAKKILEEELERLEKSKERRIARKKLKEGLPVVSSLSNTDSDARLSGKGIGKGKSTSRRCATCGALGHIRTNKACPMYYSAMNKSNPNMSDLPVYDIQY
notes: Taf1, TFIID subunit of the yeast Komagataella phaffii (formerly Pichia pastoris); native subunit of the purified complex; also called KpTaf1; source: endogenous, K. phaffii nuclear extract; co-purified in TFIID by SBP-tagged Taf2 (streptavidin beads, sucrose gradient)
B4: Taf8, subunit of Komagataella phaffii TFIID (natural protein, UniProt F2QT15 1-517, looked up)
chain: MADKSDDNQSLVSVSSASSGKENPNSVGQRSMNPTLSHEEQHDQEVQERYNTGKDLNITSQPECVPAMEVALKASVLLILSSLGVQASSLSIDHLTYITTKYIDRLVSELHRSTEIQRRRTIAKRDVQLVVDRGILDLEDVTLEYERLKLTRKRVKPSIEKLSKYASELKESASSVQVSENDKDAFFFFDIAEKISEFMPLRMKRKNYIPKWMPVLPPEHTYVATPQFTEVISDPKELREQLTAESRLGEKALQHLIGTKIVEDKKEDVGNENDNDIDKEIHHGEIDVESDHNLEKGPNGETNGVQSQPPKSMVSSKRFDIVAHAKHRLSVLEKRKRHQEQLLENRRKEIDGLVGQYLGYYATKKIEPPVSDIIVNIMNTEYYHVSREISKSEHRKQKIQESQQLKRRKLEDELQQELEHQTEDIDFEFNFDEDDVDMNKNLNENLNENENDDEQVLIEEDTSFDITNGDIEKTNQETPFTNGSSKQWDSNNAILDSTNSEPEPEPPIADLFNVDSS
notes: Taf8, TFIID subunit of the yeast Komagataella phaffii (formerly Pichia pastoris); putative helices placed in the cryo-EM map; also called KpTaf8; source: endogenous, K. phaffii nuclear extract; co-purified in TFIID by SBP-tagged Taf2 (streptavidin beads, sucrose gradient)
B5: Taf5, subunit of Komagataella phaffii TFIID (natural protein, UniProt F2QWD3 1-722, looked up)
chain: MKQEPGDSSDKSAPSGSITPQPKPPQQANVSNQQPQKPQQFSAADLNRIVLEYLNKKGYHKTESMLRMESSHIPAPPTNIPTPQTTNISRPTAPGRAPEYSDDPATIKRGYSILKSWCESSLDFYRPELEKFLYPVFVHCYLDLIARGYPSHAREFYDKFSKDHSVLHEYEISKLGGISLKEHLQENDVAKIFRSHKFKVLIGRTTFNLLLYFLNENDAVGGGVVLRLINQYIEPVITTEAIAVEREGELNLSEGIVELHTLNNTSIGGEQREISSVDAFNKKPVKLGKLQVDPEYSKELEAELKLKDEHEQAAQKKVSTTLLEEYRENFKVDPSDENNPSKDTLPLPLKSAQDLRNDIAMIQDSRAKIKLSAAQASLPSVCMYTFHNTNNDLTCLKFNDDSTMVASGFQDSFIKLWSIDGSPLRSLLKNDPYNQQNNDGVAVKGSRRLVGHSGAVYGVDFSPDNRYLISCSEDKTVRLWSLDTYTCLVSYKGHSSSVWDVKFSPMGHYFATASHDQTARLWSCDHIYPLRIFAGHLNDVDCVEFHPNSTYLFTGSSDKTARMWDIARGECVRVFMGHSGAINCLAVSPDGRWLASAGEDSVVCLWDISTGRRIKAMRGHGRSSIYSLAFSREGTVLVSTGADNSVRVWDVKKNTNSPSAQPEPINDVTAQGIQKKTEDLRRRKEIVATNDHMSVYFTKKTPVYTVHFTRRNLCLAGGVFGG
notes: Taf5, TFIID subunit of the yeast Komagataella phaffii (formerly Pichia pastoris); WD40 repeat and NTD (residues 99–243) modelled in the cryo-EM map; two copies in holo-TFIID; source: endogenous, K. phaffii nuclear extract; co-purified in TFIID by SBP-tagged Taf2 (streptavidin beads, sucrose gradient)
B6: Taf6, subunit of Komagataella phaffii TFIID (natural protein, UniProt F2QMA7 1-485, looked up)
chain: MSKNSQRSSIPTSHTLWSPSDTVKDAAESLGIFNLNEEAAKNLAMDIEYRIHEILDQASKFMRHGKRRTLHTSDIDRALKVLNLEPLYGYDVSRPLVFKEALVGAGQNLYYVDDDEVDFEKLINEPLPKVPRFSTFTAHWLAIEGVQPAIPQNPSPNDIKNILPINRGSMENMFSLINDEVKEDTNEEFTSTGPSVSSNISNQKQGLEVKPLVKHVLSRELQLYFDKIVEVLLNQEETKEAELLRNSALQSVRADPGLHQLVPYFIQFISETITKNLKNISLLSTMLELIYSLLMNESLFLEPYVHAIIPCILTLLLAKKIGNVDDELQKQQQLALRELSASLLERVIEDFGSSYSTLKPRITRTLLRAFVSVNNTTPGTQYGALLGLRGLGSEVIRIVVLGNVINWSSTFLEKLQQEDQVFLIDTLIETLRVLTKEGKLVKDMKTENGIDNERLKQRVGDLIADRIQACDDAQDIYWGIFFGEV
notes: Taf6, TFIID subunit of the yeast Komagataella phaffii (formerly Pichia pastoris); HEAT repeats (residues 213–486) and histone-fold domain modelled in the cryo-EM map; two copies in holo-TFIID; source: endogenous, K. phaffii nuclear extract; co-purified in TFIID by SBP-tagged Taf2 (streptavidin beads, sucrose gradient)

For data set [1], the target named is B5. Briefly: cross-linking; 50 µg purified TFIID, 3 mM BS3, 2 h at 25 °C; trypsin, SCX fractionation, Orbitrap Fusion MS; pLink and Nexus, 5% FDR. To be noted: both partners purified.
Data set [2] deals with B2. The description is as above. The note with it: both partners purified.
Data set [3] addresses T1, Taf2 with C-terminal streptavidin-binding peptide tag, subunit of Komagataella phaffii TFIID (Komagataella phaffii, UniProt F2QRH9 1-1571).
T1 construct: Taf2, TFIID subunit of the yeast Komagataella phaffii (formerly Pichia pastoris); residues 36 to 1194 modelled in the cryo-EM map; bait of the purification; also called SBP-tagged Taf2; source: K. phaffii strain with SBP-tagged Taf2, nuclear extract; purified (streptavidin beads, biotin elution, sucrose gradient)
Briefly: affinity purification with mass spectrometry; TFIID purified from K. phaffii nuclear extract by the SBP tag at the C-terminus of Taf2 (streptavidin beads, 250 mM potassium acetate, elution with 10 mM biotin, 10–30% sucrose gradient); SDS-PAGE and mass spectrometry of the purified complex. To be noted: partners not purified.

Data set [4] has as its target T1, Taf2 with C-terminal …. Briefly: cross-linking; 50 µg purified TFIID, 3 mM BS3, 2 h at 25 °C; trypsin, SCX fractionation, Orbitrap Fusion MS; pLink and Nexus, 5% FDR. To be noted: both partners purified.
Data set [5] deals with the molecule itself. Briefly: cryo-EM structure; purified TFIID (0.4 µM) with two-fold excess of TFIIA and 2.5–3-fold excess of pGAP promoter DNA, cross-linked with 0.1% glutaraldehyde; focused refinement of the lobes (Taf2 lobe 4.5 Å, Twin lobe 4.8 Å); homology models docked.

Turning to B1, the binding result in data set [1] and in data set [2] was “binds” in each case.

On to B2, for which, in data set [1], the binding result is “binds”.

On to B3, for which, in data set [3], the binding result is given as “binds”.

Regarding B4, in data set [4], the binding result is “binds”.

As usually defined, the stoichiometry N is the number of molecules, sites or subunits per partner or assembly. As for B5, in data set [5], the “stoichiometry N” value was 2.

For B6, the “stoichiometry N” value in data set [5] amounted to 2.
